Results taken from patent US20240261333A1, “NOVEL TARGETS FOR ENHANCING ANTI-TUMOR IMMUNITY” (THE BROAD INSTITUTE, INC., priority 2021, published 2024).

T1: B3GNT2 (Homo sapiens, UniProt Q9NY97)
T1 construct: The respective ORFs of candidate genes [CD274 (NM_014143), MCL1 (NM_021960), JUNB (NM_002229), and B3GNT2 (NM_006577)] were synthesized; expressed in transfected cells; host or cells: A375 melanoma cells (lentiviral ORF overexpression)
T1 sequence (Q9NY97 1-397): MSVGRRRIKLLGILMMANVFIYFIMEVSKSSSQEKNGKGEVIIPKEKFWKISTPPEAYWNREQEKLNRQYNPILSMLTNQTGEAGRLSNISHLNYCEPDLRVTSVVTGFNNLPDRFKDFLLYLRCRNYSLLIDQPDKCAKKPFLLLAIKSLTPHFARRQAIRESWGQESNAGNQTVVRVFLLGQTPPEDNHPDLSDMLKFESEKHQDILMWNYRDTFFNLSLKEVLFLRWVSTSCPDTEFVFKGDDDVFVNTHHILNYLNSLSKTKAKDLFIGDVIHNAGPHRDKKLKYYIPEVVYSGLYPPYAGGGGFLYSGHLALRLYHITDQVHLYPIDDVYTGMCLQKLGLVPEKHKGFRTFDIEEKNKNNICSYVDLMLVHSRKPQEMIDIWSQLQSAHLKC


Target: T1, B3GNT2
Assay: Co-IP of FLAG-tagged B3GNT2 followed by mass spectrometry
Type: cell-based
Set-up: C-term IgG / C-term flag: unit not given here
Conditions: mass spectrometry count, unit not given; for C-term flag / N-term FLAG: Co-IP with FLAG antibody; for C-term flag / C-term IgG: C-terminally FLAG-tagged B3GNT2; for N-term FLAG / N-term IgG: N-terminally FLAG-tagged B3GNT2; for C-term IgG / N-term IgG: Co-IP with IgG control antibody
Outline: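 Co-purifying proteins were identified by fractionated nano-LC–MS/MS on an Orbitrap Elite, run data-dependent. Beforehand, lysates in 1% Triton X-100/HEPES buffer were incubated overnight at 4° C with anti-FLAG or […] and pulled down on Protein A/G magnetic beads for 4 h. Duplicate biological replicates.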

Row | Molecule | C-term flag | N-term FLAG | C-term IgG | N-term IgG
1 | HYOU1 (protein) LAVMSVDLGSESMKVAIVKPGVPMEIVLNKESRRKTPVIVTLKENERFFGDSAASMAIKNPKATLRYFQHLLGKQADNPHVALYQARFPEHELTFDPQRQTVHFQISSQLQFSPEEVLGMVLNYSRSLAEDFAEQPIKDAVITVPVFFNQAERRAVLQAARMAGLKVLQLINDNTATALSYGVFRRKDINTTAQNIMFYDMGSGSTVCTIVTYQMVKTKEAGMQPQLQIRGVGFDRTLGGLEMELRLRERLAGLFNEQRKGQRAKDVRENPRAMAKLLREANRLKTVLSANADHMAQIEGLMDDVDFKAKVTRVEFEELCADLFERVPGPVQQALQSAEMSLDEIEQVILVGGATRVPRVQEVLLKAVGKEELGKNINADEAAAMGAVYQAAALSKAFKVKPFVVRDAVVYPILVEFTREVEEEPGIHSLKHNKRVLFSRMGPYPQRKVITFNRYSHDFNFHINYGDLGFLGPEDLRVFGSQNLTTVKLKGVGDSFKKYPDYESKGIKAHFNLDESGVLSLDRVESVFETLVEDSAEEESTLTKLGNTISSLFGGGTTPDAKENGTDTVQEEEESPAEGSKDEPGEQVELKEEAEAPVEDGSQPPPPEPKGDATPEGEKATEKENGDKSEAQKPSEKAEAGPEGVAPAPEGEKKQKPARKRRMVEEIGVELVVLDLPDLPEDKLAQSVQKLQDLTLRDLEKQEREKAANSLEAFIFETQDKLYQPEYQEVSTEEQREEISGKLSAASTWLEDEGVGATTVMLKEKLAELRKLCQGLFFRVEERKKWPERLSALDNLLNHSSMFLKGARLIPEMDQIFTEVEMTTLEKVINETWAWKNATLAEQAKLPATEKPVLLSKDIEAKMMALDREVQYLLNKAKFTKPRPRPKDKNGTRAEPPLNASASDQGEKVIPPAGQTEDAEPISEPEKVETGSEPGDTEPLELGGPGAEPEQKEQSTGQKRPLKNDEL | 27 | 0 | 0 | 0
2 | MYL9 (protein) SSKRAKAKTTKKRPQRATSNVFAMFDQSQIQEFKEAFNMIDQNRDGFIDKEDLHDMLASLGKNPTDEYLEGMMSEAPGPINFTMFLTMFGEKLNGTDPEDVIRNAFACFDEEASGFIHEDHLRELLTTMGDRFTDEEVDEMYREAPIDKKGNFNYVEFTRILKHGAKDKDD | 0 | 3 | 0 | 0
3 | FAM3A (protein) FPRIQQLFTSPESSVTAAPRARKYKCGLPQPCPEEHLAFRVVSGAANVIGPKICLEDKMLMSSVKDNVGRGLNIALVNGVSGELIEARAFDMWAGDVNDLLKFIRPLHEGTLVFVASYDDPATKMNEETRKLFSELGSRNAKELAFRDSWVFVGAKGVQNKSPFEQHVKNSKHSNKYEGWPEALEMEGCIPRRSTAS | 18 | 9 | 0 | 0
4 | CALR (protein) EPAVYFKEQFLDGDGWTSRWIESKHKSDFGKFVLSSGKFYGDEEKDKGLQTSQDARFYALSASFEPFSNKGQTLVVQFTVKHEQNIDCGGGYVKLFPNSLDQTDMHGDSEYNIMFGPDICGPGTKKVHVIFNYKGKNVLINKDIRCKDDEFTHLYTLIVRPDNTYEVKIDNSQVESGSLEDDWDFLPPKKIKDPDASKPEDWDERAKIDDPTDSKPEDWDKPEHIPDPDAKKPEDWDEEMDGEWEPPVIQNPEYKGEWKPRQIDNPDYKGTWIHPEIDNPEYSPDPSIYAYDNFGVLGLDLWQVKSGTIFDNFLITNDEAYAEEFGNETWGVTKAAEKQMKDKQDEEQRLKEEEEDKKRKEEEEAEDKEDDEDKDEDEEDEEDKEEDEEEDVPGQAKDEL | 20 | 6 | 0 | 0
5 | FAM3C (protein) QVFEIKMDASLGNLFARSALDTAARSTKPPRYKCGISKACPEKHFAFKMASGAANVVGPKICLEDNVLMSGVKNNVGRGINVALANGKTGEVLDTKYFDMWGGDVAPFIEFLKAIQDGTIVLMGTYDDGATKLNDEARRLIADLGSTSITNLGFRDNWVFCGGKGIKTKSPFEQHIKNNKDTNKYEGWPEVVEMEGCIPQKQD | 23 | 2 | 0 | 0
6 | PRDX2 (protein) ASGNARIGKPAPDFKATAVVDGAFKEVKLSDYKGKYVVLFFYPLDFTFVCPTEIIAFSNRAEDFRKLGCEVLGVSVDSQFTHLAWINTPRKEGGLGPLNIPLLADVTRRLSEDYGVLKTDEGIAYRGLFIIDGKGVLRQITVNDLPVGRSVDEALRLVQAFQYTDEHGEVCPAGWKPGSDTIKPNVDDSKEYFSKHN | 5 | 9 | 0 | 5
7 | TGM3 (protein) AALGVQSINWQTAFNRQAHHTDKFSSQELILRRGQNFQVLMIMNKGLGSNERLEFIVSTGPYPSESAMTKAVFPLSNGSSGGWSAVLQASNGNTLTISISSPASAPIGRYTMALQIFSQGGISSVKLGTFILLFNPWLNVDSVFMGNHAEREEYVQEDAGIIFVGSTNRIGMIGWNFGQFEEDILSICLSILDRSLNFRRDAATDVASRNDPKYVGRVLSAMINSNDDNGVLAGNWSGTYTGGRDPRSWNGSVEILKNWKKSGFSPVRYGQCWVFAGTLNTALRSLGIPSRVITNFNSAHDTDRNLSVDVYYDPMGNPLDKGSDSVWNFHVWNEGWFVRSDLGPSYGGWQVLDATPQERSQGVFQCGPASVIGVREGDVQLNFDMPFIFAEVNADRITWLYDNTTGKQWKNSVNSHTIGRYISTKAVGSNARMDVTDKYKYPEGSDQERQVFQKALGKLKPNTPFAATSSMGLETEEQEPSIIGKLKVAGMLAVGKEVNLVLLLKNLSRDTKTVTVNMTAWTIIYNGTLVHEVWKDSATMSLDPEEEAEHPIKISYAQYEKYLKSDNMIRITAVCKVPDESEVVVERDIILDNPTLTLEVLNEARVRKPVNVQMLFSNPLDEPVRDCVLMVEGSGLLLGNLKIDVPTLGPKEGSRVRFDILPSRSGTKQLLADFSCNKFPAIKAMLSIDVAE | 5 | 9 | 3 | 2
8 | PIP (protein) QDNTRKIIIKNFDIPKSVRPNDEVTAVLAVQTELKECMVVKTYLISSIPLQGAFNYKYTACLCDDNPKTFYWDFYTNRTVQIAAVVDVIRELGICPDDAAVIPIKNNRFYTIEILKVE | 3 | 4 | 2 | 0
9 | SLC25A4 (protein) GDHAWSFLKDFLAGGVAAAVSKTAVAPIERVKLLLQVQHASKQISAEKQYKGIIDCVVRIPKEQGFLSFWRGNLANVIRYFPTQALNFAFKDKYKQLFLGGVDRHKQFWRYFAGNLASGGAAGATSLCFVYPLDFARTRLAADVGKGAAQREFHGLGDCIIKIFKSDGLRGLYQGFNVSVQGIIIYRAAYFGVYDTAKGMLPDPKNVHIFVSWMIAQSVTAVAGLVSYPFDTVRRRMMMQSGRKGADIMYTGTVDCWRKIAKDEGAKAFFKGAWSNVLRGMGGAFVLVLYDEIKKYV | 14 | 9 | 0 | 0
10 | HSD17B12 (protein) MESALPAAGFLYWVGAGTVAYLALRISYSLFTALRVWGVGNEAGVGPGLGEWAVVTGSTDGIGKSYAEELAKHGMKVVLISRSKDKLDQVSSEIKEKFKVETRTIAVDFASEDIYDKIKTGLAGLEIGILVNNVGMSYEYPEYFLDVPDLDNVIKKMININILSVCKMTQLVLPGMVERSKGAILNISSGSGMLPVPLLTIYSATKTFVDFFSQCLHEEYRSKGVFVQSVLPYFVATKLAKIRKPTLDKPSPETFVKSAIKTVGLQSRTNGYLIHALMGSIISNLPSWIYLKIVMNMNKSTRAHYLKKTKKN | 10 | 10 | 0 | 0
11 | ERLIN1 (protein) MNMTQARVLVAAVVGLVAVLLYASIHKIEEGHLAVYYRGGALLTSPSGPGYHIMLPFITTFRSVQTTLQTDEVKNVPCGTSGGVMIYIDRIEVVNMLAPYAVFDIVRNYTADYDKTLIFNKIHHELNQFCSAHTLQEVYIELFDQIDENLKQALQKDLNLMAPGLTIQAVRVTKPKIPEAIRRNFELMEAEKTKLLIAAQKQKVVEKEAETERKKAVIEAEKIAQVAKIRFQQKVMEKETEKRISEIEDAAFLAREKAKADAEYYAAHKYATSNKHKLTPEYLELKKYQAIASNSKIYFGSNIPNMFVDSSCALKYSDIRTGRESSLPSKEALEPSGENVIQNKESTG | 9 | 11 | 0 | 0
12 | CASP14 (protein) MSNPRSLEEEKYDMSGARLALILCVTKAREGSEEDLDALEHMFRQLRFESTMKRDPTAEQFQEELEKFQQAIDSREDPVSCAFVVLMAHGREGFLKGEDGEMVKLENLFEALNNKNCQALRAKPKVYIIQACRGEQRDPGETVGGDEIVMVIKDSPQTIPTYTDALHVYSTVEGYIAYRHDQKGSCFIQTLVDVFTKRKGHILELLTEVTRRMAEAELVQEGKARKTNPEIQSTLRKRLYLQ | 9 | 8 | 4 | 3
